Measurements taken from the supplement of paper PMC9170038.

Tests used:
[1] = system: MS2 coat protein; assay: apparent KD of MS2 coat protein; higher = weaker reporter binding; details: Eterna round: R101
Experimental: (§1)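 RNA-MaP: designed FMN/MS2 RNA switches (84 nt design region) are transcribed on-chip within common flanks and titrated with SNAP-549-labelled MS2 coat protein (about 1-3000 nM) in 100 mM Tris pH 7.5, 80 mM KCl, 4 mM MgCl2, without or with 200 uM FMN. Median apparent KD per design; activation ratio = KD,OFF / KD,ON.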

[2] = system: MS2 coat protein; assay: apparent KD of MS2 coat protein; designed switch direction (-1 OFF switch, 1 ON switch): -1; higher = weaker reporter binding; details: Eterna round: R98
Experimental: as §1

[3] = system: MS2 coat protein; assay: apparent KD of MS2 coat protein; designed switch direction (-1 OFF switch, 1 ON switch): 1; higher = weaker reporter binding; details: Eterna round: R98
Experimental: as §1

Row | Sequence | apparent KD of MS2 coat protein ([1]; input ligand: FMN 200 uM) [nM] | apparent KD of MS2 coat protein ([1]; input ligand: none) [nM] | apparent KD of MS2 coat protein ([2]; input ligand: FMN 200 uM) [nM] | apparent KD of MS2 coat protein ([2]; input ligand: none) [nM] | further results
1 | AAAAAUUCUUAAGGAUAUCAGUGGCAAAGCCACUGAGAAGGUGAGGAUCACCCACCUACGUGACGCUGGAAACAGCGUCACGAA [#SharedSequence ExNG1 - 29] (puzzle (switch architecture): Exclusion NG 1) | 18.8 | 16.6 |  |  | 
2 | AAUAAUUCUUAAGGAUAUGACUCCGAAACGGAGUCAGAAGGUGAGGAUCACCCACCUAGCUCAGCGUCGAAAGACGCUGAGCAA [#SharedSequence ExNG1 - 31] (puzzle (switch architecture): Exclusion NG 1) | 12.7 | 10.5 |  |  | 
3 | AGAAACUACGAGAAGGACAUGUGGUCCUUCAAAACCAUGAGGAUCACCCAUGUAGGAUAUCGUAGUUUCAGGAUCGUGAGAUCA [salish99_ISLExNG1_023 #HINGE] (puzzle (switch architecture): Inverted Small Loop Exclusion NG 1) | 12.1 | 268 |  |  | 
4 | AGGACAGGCAGAGCGCAACGGCGUACAUGAGGAUCACCCAUGUAGGAUAUACUACACAAAGUGUAGUAGAAGGACAUGCGACGC [Ex NG2 #88] |  |  | 45.6 | 16.1 | 
5 | AUAUAUAUUUAGAAGGACAUGAGGAUCACCCAUGUCGCCGGGCCCGGGAAACCGGGCCCGGCCAUGUAGGAUAUAGAUAUAUAU [#This is a good prank 13] (puzzle (switch architecture): Inverted Exclusion NG 2) | 9.05 | 6.41 |  |  | 
6 | AUCAGCUCGUCAGGAUAUACGUCACUGCUUCGGCAGUGUGGUAAGAUCACAUGAGGAUCACCCAUGUAGAAGGGACGAGCUGAU [#EX_NG2_M81 #GC_VS_GU_SWITCHING] (puzzle (switch architecture): Exclusion NG 2) | 258 | 13.4 |  |  | 
7 | AUGACAGGCAGAGCGCAACGGCGUACAUGAGGAUCACCCAUGUAGGAUAUACUACACAAAGUGUAGUAGAAGGACAUGCGACGC [Ex NG2 #87] |  |  | 34.4 | 23.2 | 
8 | AUGACAGGCAGAGCGCAACGGCGUACAUGAGGAUCACCCAUGUAGGAUAUACUACACAAAGUGUAGUAGAAGGACAUGCGACGG [Ex NG2 #89] |  |  | 69 | 35.8 | 
9 | AUGGAUAUCACAGGAUAUGAUAUGGAUACCAUAUCAGAAGGGUGACCCAUCCUAUGUAAAUACAUGAGGAUCACCCAUGUGUCC [Sara'sguidence+#HughScoreProbStacks#11] (puzzle (switch architecture): Same State NG 1) | 340 | 640 |  |  | 
10 | CCAUAAAAGAUCCAUUUUUACAACAUGAGGAUCACCCAUGUGCAGGAUAUCGUGAAAGUUAAAUACGAGAAGGGCAAGAACUGC [JR_ExcNG3_Sub050] |  |  | 104 | 105 | 
11 | CCUUUAAAGAUCCAAAAUUACAACAUGAGGAUCACCCAUGUGCAGGAUAUCGUGCCAGUGAUGUACGAGAAGGGCAGACUCUGC [salish99_ExNG3_r2_015] |  |  | 95.2 | 105 | 
12 | CGAAGUCCGUAGAAGGGUGACAUGAGGAUCACCCAUGUGCGAGCCGAUGGAGUCAGCGGCUCGCCACAGGAUAUACGGAGCACG [Isdiesrama] (puzzle (switch architecture): Inverted Same State NG 2) | 22.3 | 180 |  |  | 
13 | CGAUAUAUGAAGGGCAAACGCCCACAUGAGGAUCACCCAUGUAGAAGGCGAUCCGCAACGCGGAUCGAGGAUAUAUAGUAUACA [#my 15th design] (puzzle (switch architecture): Inverted Exclusion NG 3) | 10.6 | 11.2 |  |  | 
14 | CGCUAUAACAUGAGGAUCACCCAUGUAUACAUGGAAUUGACGUAGGAUAUGCAGUUGAUUAUAGUGCAGAAGGACGGUAUAGCG [JR #DistanceFar #Hairpin #Noisy #NP SSNG3 Sub069] (puzzle (switch architecture): Same State NG 3) | 37.3 | 101 |  |  | 
15 | GCAGCUAAUGCAGGAUAUCAGCACGUGUAGUGCUGAGAAGGGCACAUGAGGAUCACCCAUGUGAUCAAUUAAUGUUAAUGCUGC [ExNG1 1 #C-Saturation] (puzzle (switch architecture): Exclusion NG 1) | 15.2 | 6.82 |  |  | 
16 | GGAGACCUUACAGGAUAUGCUGGACUUUGUCCAGCAGAAGGGUGAAAACAUGAGGAUCACCCAUGUAUGGUCUCCAAAUUUAAU [jl-ssng1-3.02 #GU_VS_GC_SWITCHING] (puzzle (switch architecture): Same State NG 1) | 21.2 | 19.1 |  |  | 
17 | GGGUACAUCGGAGGAUAUCAUGUAUAUACAUGAGGAUCACCCAUGUCGAUGGAGACAUCGGAGAUUGAGAAGGCCGAUGUACCG (puzzle (switch architecture): Same State NG 2) | 11.8 | 382 |  |  | 
18 | GUCCCAGUCACAGGAUAUGGCUCCGUAAUGGAGCCAGAAGGGUGAUAUUCAGAAAACACACAUGAGGAUCACCCAUGUAAUAAA [Enindiinso] |  |  |  |  | apparent KD of MS2 coat protein ([3]; input ligand: FMN 200 uM): 188 nM; apparent KD of MS2 coat protein ([3]; input ligand: none): 774 nM
19 | UAUAUAUAGGCAGGAUAUACAUGAAUAUAUAAUAUAAUAUAUAAUAUAACAUGAGGAUCACCCAUGUAGAAGGGCCAUAAUAUA [LRO031_Exclusion NG 2] |  |  | 109 | 48.6 | 
20 | UAUAUAUAGGCAGGAUAUACAUGUAUAUAUAAUUUUUUAUAUAUUAUUACAUGAGGAUCACCCAUGUAGAAGGGCCUUAUUAUA [LRO039_Exclusion NG 2] |  |  | 62.8 | 46.9 | 
21 | UAUAUAUGGUGAGGAUAUGCAGAGGAUCACCCUGUAGAAGGCAUCAGGGUAGAAGGUGCAAGGAUCACCUGUAAGGAUAUAUCC [pwkr2 ssNG1 DX.30] |  |  |  |  | apparent KD of MS2 coat protein ([3]; input ligand: FMN 200 uM): 587 nM; apparent KD of MS2 coat protein ([3]; input ligand: none): 1370 nM
22 | UAUUAUAUAUAGAAGGACAUGAGGAUCACCCAUGUCGCCGGGCCCGGGAAACCGGGCCCGGCCAUGUAGGAUAUAUAUAUGGUA [#This is a good prank 8] (puzzle (switch architecture): Inverted Exclusion NG 2) | 6.2 | 6.38 |  |  | 
23 | UAUUGCGCCGUAAAAUAACACAUGAGGAUCACCCAUGUGACACAGGAUAUAACCAGAUCAGAAAGUUAGAAGGGUGAAAACGGC [Edraed Mod 3 - Jieux - Same State NG3] |  |  |  |  | apparent KD of MS2 coat protein ([3]; input ligand: FMN 200 uM): 20.4 nM; apparent KD of MS2 coat protein ([3]; input ligand: none): 30.8 nM
24 | UGAUCGCUUGGAGGAUAUCCAACUAUCCUAGUUGGAGAAGGCCAAGCUACAGAGCUAAGCUUGGAAGUCACUUCGGAUCAACAC [pwkr ssNG1 F9.4.1] |  |  |  |  | apparent KD of MS2 coat protein ([3]; input ligand: FMN 200 uM): 65.5 nM; apparent KD of MS2 coat protein ([3]; input ligand: none): 32.7 nM
25 | UGUUGUUACGCAGGAUAUUGCCAACAGGCAGUAGGAUAUCCGAAAGGAGAAGGAUCGCCAACAGGCGAGAAGGGCGGGUUAACA [pwkr exNG2 2xF7 2FMN.10.2] |  |  | 194 | 706 | 
